Biological target: T1, CTCF ZNF1-11 (GST-zinc finger domain) (human, UniProt P49711 266-577)
T1 sequence: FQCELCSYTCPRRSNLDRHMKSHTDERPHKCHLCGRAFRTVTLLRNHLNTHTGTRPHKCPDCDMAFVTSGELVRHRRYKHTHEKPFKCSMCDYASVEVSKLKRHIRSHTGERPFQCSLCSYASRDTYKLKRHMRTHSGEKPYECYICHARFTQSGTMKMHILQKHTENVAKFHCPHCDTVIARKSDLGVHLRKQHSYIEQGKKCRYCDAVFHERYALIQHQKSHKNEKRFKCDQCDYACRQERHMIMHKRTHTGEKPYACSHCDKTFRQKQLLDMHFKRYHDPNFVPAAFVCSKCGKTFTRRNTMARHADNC
Assay: EMSA; 50 mM MgCl2; 200 ng poly(dI/dC); EMSA: 25 mM HEPES pH 8.0, 50 mM KCl, 50 mM MgCl2, 1% NP40, 10% glycerol, 200 ng poly(dI/dC), 20 min at 4 C; 1 pmol protein, 0.5 pmol DNA
Conditions: protein: recombinant; tags: GST (pGEX-4T-1; N-terminal); label: 32P; blunt (only one strand printed; described as duplex oligonucleotide)

B1: insulator DNA 45-mer (dsDNA)
DNA 1: CCCCCAGGGATGTAATTACGTCCCTCCCCCGCTAGGGGGCAGCAG
DNA 2: CTGCTGCCCCCTAGCGGGGGAGGGACGTAATTACATCCCTGGGGG
binding result: binds

Source: publication PMC5337984, “CTCF participates in DNA damage response via poly(ADP-ribosyl)ation”
